Measured values reported in US20240309103A1 (Regeneron, published 2024).

B1: mAb22033 (antibody, V domains shown)
VH: QVQLVQSGAEVKKPGASVTVSCKASGYTFTDYYMHWVRQAPGQGLEWMGWIKPNSGGTNSAQRFQGRITMTWDTSISTAYMELSRLRSDDTAVYYCSRGGPVMNYYYYYGMDVWGQGTTVTVSS
VL: NIQMTQSPSSLSASVGDRVTITCRASQSIDSYLNWYQQKPGKAPKLLIYVASSLQSGVPSRFSGSGSGKDFTLTISSLQPEDFATYYCQQSYSIPTFGQGTRLEIK
B2: mAb22035 (antibody, V domains shown)
VH: EVQLVESGGGLVQPGRSLRLSCAASGFTFDDYAMHWVRQAPGKGLEWVSGISWNSGTIGYADSVKGRFTMSRDNAKNSLYLQMNSLRPEDTALYYCAKDMGVSLALWGAFDIWGQGTMVTVSS
VL: DIQMTQSPSSLSASVGDKVTITCRASQNIRTYLNWYQQKPGKAPKVLISTASSLQSGVPSRFSGSGSGTDFTLTISSLQPEDFAVFYCQQSFGIPRTFGQGTKVEIK

Assays:
[1] = molecular target: T1, mouse NPR1 extracellular domain expressed with a C-terminal mouse IgG2a (mNPR1-mFc) (mouse); assay: SPR, Tables 21 to 26
T1 chain: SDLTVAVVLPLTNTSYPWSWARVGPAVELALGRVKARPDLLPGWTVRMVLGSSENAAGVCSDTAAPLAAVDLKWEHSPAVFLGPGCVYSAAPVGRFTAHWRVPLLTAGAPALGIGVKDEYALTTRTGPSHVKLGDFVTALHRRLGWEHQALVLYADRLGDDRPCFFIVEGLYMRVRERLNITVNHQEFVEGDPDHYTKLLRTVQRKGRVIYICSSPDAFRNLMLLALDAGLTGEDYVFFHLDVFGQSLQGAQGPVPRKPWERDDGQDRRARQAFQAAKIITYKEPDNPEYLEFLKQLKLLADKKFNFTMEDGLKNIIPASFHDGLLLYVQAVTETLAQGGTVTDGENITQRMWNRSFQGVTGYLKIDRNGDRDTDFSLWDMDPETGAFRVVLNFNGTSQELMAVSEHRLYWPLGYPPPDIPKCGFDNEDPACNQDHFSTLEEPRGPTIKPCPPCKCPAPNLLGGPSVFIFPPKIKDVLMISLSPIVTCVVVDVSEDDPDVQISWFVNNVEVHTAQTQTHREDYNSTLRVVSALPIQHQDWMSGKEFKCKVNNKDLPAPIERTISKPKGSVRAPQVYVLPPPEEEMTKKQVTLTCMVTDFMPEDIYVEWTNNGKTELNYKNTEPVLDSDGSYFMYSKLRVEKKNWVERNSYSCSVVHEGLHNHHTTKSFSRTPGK
Summary of the method: (§1)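 Capture surface: anti-human Fc mAb or anti-human Fcγ pAb amine-coupled to CM5; mAbs captured, NPR1 reagent as analyte.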

[2] = molecular target: T2, human NPR1 extracellular domain expressed with a C-terminal myc-myc-hexahistidine (hNPR1-MMH) (human, UniProt P16066 33-473); assay: SPR, mAb captured, 25 C
T2 construct: also called hNPR.mmh; monomeric human NPR1
Summary of the method: as §1

[3] = molecular target: T3, monkey NPR1 extracellular domain expressed with a C-terminal myc-myc-hexahistidine (mfNPR1-MMH) (monkey, UniProt P16066 33-473 (human entry)); assay: SPR, mAb captured, 25 C
T3 construct: also called monomeric monkey NPR1
T3 chain: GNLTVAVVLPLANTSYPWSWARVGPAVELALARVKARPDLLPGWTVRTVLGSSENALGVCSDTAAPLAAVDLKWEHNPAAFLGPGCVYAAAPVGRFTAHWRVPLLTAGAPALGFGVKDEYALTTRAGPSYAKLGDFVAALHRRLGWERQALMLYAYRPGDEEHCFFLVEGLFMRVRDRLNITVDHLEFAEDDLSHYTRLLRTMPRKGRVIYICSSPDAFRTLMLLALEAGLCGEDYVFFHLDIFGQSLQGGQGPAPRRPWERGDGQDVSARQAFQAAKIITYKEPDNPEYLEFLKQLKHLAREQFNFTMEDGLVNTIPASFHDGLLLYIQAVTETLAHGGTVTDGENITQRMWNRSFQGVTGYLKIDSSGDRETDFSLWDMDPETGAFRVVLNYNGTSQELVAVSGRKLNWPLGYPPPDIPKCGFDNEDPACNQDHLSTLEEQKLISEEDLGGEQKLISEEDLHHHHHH
Summary of the method: as §1

[4] = molecular target: mouse NPR1 extracellular domain expressed with a C-terminal myc-myc-hexahistidine (mNPR1-MMH) (mouse, UniProt P18293 29-469); assay: SPR, mAb captured, 25 C
Summary of the method: as §1

[5] = molecular target: T4, human NPR1 extracellular domain expressed with a C-terminal mouse IgG2a (hNPR1-mFc) (human); assay: SPR, mAb captured, 25 C
T4 construct: also called hNPR1-Fc; human NPR1 dimer
T4 chain: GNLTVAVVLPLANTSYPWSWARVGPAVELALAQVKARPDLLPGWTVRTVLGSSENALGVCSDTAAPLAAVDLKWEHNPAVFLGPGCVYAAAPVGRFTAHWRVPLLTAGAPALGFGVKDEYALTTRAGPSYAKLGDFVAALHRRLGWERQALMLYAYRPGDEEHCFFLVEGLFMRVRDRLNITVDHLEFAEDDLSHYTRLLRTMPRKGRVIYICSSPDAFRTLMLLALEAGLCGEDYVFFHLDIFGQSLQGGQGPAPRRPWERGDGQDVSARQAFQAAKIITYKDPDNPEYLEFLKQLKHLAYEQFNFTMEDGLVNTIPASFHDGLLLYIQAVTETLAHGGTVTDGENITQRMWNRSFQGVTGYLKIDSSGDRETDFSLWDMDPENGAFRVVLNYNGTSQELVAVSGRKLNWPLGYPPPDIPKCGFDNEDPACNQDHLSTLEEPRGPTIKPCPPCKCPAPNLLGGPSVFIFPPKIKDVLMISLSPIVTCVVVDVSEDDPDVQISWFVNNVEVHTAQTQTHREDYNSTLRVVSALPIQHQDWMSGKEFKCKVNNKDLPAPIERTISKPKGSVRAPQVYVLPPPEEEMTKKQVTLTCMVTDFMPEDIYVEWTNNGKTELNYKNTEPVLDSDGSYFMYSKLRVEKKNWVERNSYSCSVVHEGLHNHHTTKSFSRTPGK
Summary of the method: as §1

T2 sequence (P16066 other isoform, or with tags, fused parts or gaps): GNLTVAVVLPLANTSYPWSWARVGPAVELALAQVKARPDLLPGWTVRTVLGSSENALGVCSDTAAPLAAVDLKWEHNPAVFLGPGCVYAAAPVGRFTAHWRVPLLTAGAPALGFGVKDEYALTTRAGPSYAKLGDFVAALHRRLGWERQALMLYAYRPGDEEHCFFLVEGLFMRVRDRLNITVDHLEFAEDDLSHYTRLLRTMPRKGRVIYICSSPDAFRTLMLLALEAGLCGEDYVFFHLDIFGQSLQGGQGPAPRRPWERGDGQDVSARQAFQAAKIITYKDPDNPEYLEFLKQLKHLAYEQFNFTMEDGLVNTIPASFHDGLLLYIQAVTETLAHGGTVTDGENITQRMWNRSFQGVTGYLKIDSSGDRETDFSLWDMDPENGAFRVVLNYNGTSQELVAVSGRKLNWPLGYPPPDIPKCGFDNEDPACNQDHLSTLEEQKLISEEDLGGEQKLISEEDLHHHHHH

Row | Binder | binding result [1] | 100 nM Ag Bound (RU) [2] | Kd [2] | koff [2] | kon [2] | t½ [2] | 100 nM Ag Bound (RU) [3] | Kd [3] | koff [3] | kon [3] | t½ [3] | 100 nM Ag Bound (RU) [4] | binding result [4] | 100 nM Ag Bound (RU) [5] | Kd [5] | koff [5] | kon [5] | t½ [5]
1 | B1 | no binding | 30 RU | 47500 pM | 0.000406 s⁻¹ | 8550 M⁻¹ s⁻¹ | 0.473 h | 79 RU | 16200 pM | 0.000291 s⁻¹ | 17900 M⁻¹ s⁻¹ | 0.66 h | 0 RU | no binding (tested: 100 nM) | 56 RU | 1030 pM | 6.38e-05 s⁻¹ | 61800 M⁻¹ s⁻¹ | 3.02 h
2 | B2 | no binding | 210 RU | 738 pM | 0.00015 s⁻¹ | 203000 M⁻¹ s⁻¹ | 1.29 h | 245 RU | 336 pM | 0.000143 s⁻¹ | 426000 M⁻¹ s⁻¹ | 1.35 h | 0 RU | no binding (tested: 100 nM) | 198 RU | 365 pM | 8.2e-05 s⁻¹ | 225000 M⁻¹ s⁻¹ | 2.35 h
